From patent JPH07265077A (dated 1995) come the findings set out here.

The target of this test is T1, Hemagglutinin (HA) of human influenza A virus A2/Aichi/2/68 (H3N2サブタイプ) (human influenza A virus A2/Aichi/2/68 …, UniProt P03437 17-566).
T1 construct: whole, on cells; also called A/Aichi/2/68; A2/Aichi/2/68

B1: モノクローナル抗体C179 (monoclonal antibody C179) (antibody, V domains shown)
VH: EVKLVESGGGLVQPGGSLRLSCGTSGFTLTDDYMTWVRQPPGKALEWLGFIRDRANGYTTEYSASVKGRFTISRDNSQSIVYLQMNTLRVEDSATYYCARPKGYFPYAMDYWGQGT
VL: DIQMTQSPASQSASLGESVTITCLASQTIGTWLAWYQQKPGKSPQLLIYAATSLADGVPSRFSGSGSGTKFSFKISSLQAEDFVSYYCQQLYSTPWTF
notes: also called antibody of Hybridoma C179 (FERM BP-4517)
Turning to B1, the binding result is “no binding”.
